Data published in patent US20260159583A1 (CHIA TAI TIANQING PHARMACEUTICAL GROUP, published 2026).
Changes are numbered by the printed parent chain.

B1: mouse anti-hGPRC5D antibody mu-105 (antibody, V domains shown)
VH: EVQLQQSGPELVKPGASVKMSCKASGYTFTDYYMNWVKQSHGKSLEWIGYIYPNNGGTGYNQRFKGKATLTADKSSSTAYMELRSLTSEDSAVYYCARWGGTRLGYYAMDYWGQGTSVTVSS
VL: DIVMTQSQKFMSTSVGDRVSVTCKASQNVGTNVVWYQQKPGQSPKLLIYWASTRHTGVPDRFTGSGSGTDFTLTISNVQSEDLADYFCQQYSRYPYTFGGGTKLEIK
notes: Tested as subcloned hybridoma culture supernatant
B2: mouse anti-hGPRC5D antibody mu-89 (antibody, V domains shown)
VH: EVQLVESGGDLVKPGGSLKLSCAASGFTFSSYGMSWVRQTPDKRLEWVATISSGGSYTYYPDSVKGRFTFSRDNAKNTLYLQMSSLKSEDTAMYYCVRQALRYHMDSWGQGTSVTVSS
VL: B1 VL with V34A, L46A, W50S, T53Y, H55Y, T56S, Y86F, S92Y, R93S, Y96W
notes: as for B1
B3: mouse anti-hGPRC5D antibody mu-131 (antibody, V domains shown)
VH: EVQLQQSGPELVKPGASVKMSCKASGYTFTNYVMHWVKQKPGQGLEWIGYFNPYNDGTNYNEKFKGKATLTSDKSSNTAYMELSSLTSEDSAVYYCARGGVRRYFDVWGAGTTVTVSS
VL: DIQMTQSPSSLSASLGERVSLTCRASQDIGSNLNWLQLGPDGTIKRLIYATFSLDSGVPKRFSGSRSGSDYSLTISSLESEDFVDYYCQQYANFPPTFGGGTKLEIK
notes: as for B1
B4: mouse anti-hGPRC5D antibody mu-128 (antibody, V domains shown)
VH: DVQLVESGGGLVQPGGSRKVSCAASGFTFSSFGMHWVRQAPEKGLEWVAYISRGSSTIYYADTVKGRFTISRDNPKNTLFLQMTSLRSEDTAMYYCARSGYGSSSYYFDYWGQGTTLTVSS
VL: ENVLTQSPAIMSASPREKVTMTCRASSSIRSSYLHWYQQKSGASPKLWIYSTSNLASGVPARFSGSGSGTSYSLTISSVEAEDAATYYCQQFSGYPLTFGGGTKLEIK
notes: as for B1
B5: mouse anti-hGPRC5D antibody mu-169 (antibody, V domains shown)
VH: EVKLVESGGGLVKPGASLKLSCAASGFTFSNYGMSWVRQTSDKRLEWVASISSGGGRIYYPDNVKGRFTISRENAKNTLYLQMSSLKSEDTALYYCTRHAMDNWGQGTSVIVSS
VL: QIVLTQSPAIMSASPGEKVTMTCSASSSVSNMYWYQQKSGTSPKRWIYDTSKLASGVPARFSGSGSGTSYSLTISSMEAEDASTYYCQQWSSNPLTFGAGTTLELK
notes: as for B1

Target: T1, human GPRC5D protein (human, UniProt Q9NZD1 1-345)
T1 construct: also called hGPRC5D
Assay: FACS, subclone supernatant on H929 cells
Experimental: An H929 (i.e., NCI-H929) cell suspension at a cell concentration of 3× 10⁵ cells/mL was plated into a 96-well U-bottom plate at 100 μL/well. The subcloned cell culture supernatant was added at 100 μL/well or an equal volume of culture medium (hereinafter referred to as Medium) was added. The mixture was mixed well, and then incubated at 4° C. for 1 h. The cells were washed with PBS containing 2% (by volume) of FBS. An AlexaFluor488-conjugated goat anti-mouse IgG+IgM (H+L) antibody (Jackson Immuno Research, Cat. No.: 115-545-044) was added, and the mixture was incubated at 4° C. for 1 h. The cells were washed with PBS containing 2% (by volume) of FBS and then resuspended. Fluorescence signals were detected on a flow cytometer (Sartorius, IQue3). The binding of the mouse anti-hGPRC5D antibody to H929 cells was analyzed by the mean fluorescence intensity (MFI) of staining.

T1 sequence (Q9NZD1 whole entry): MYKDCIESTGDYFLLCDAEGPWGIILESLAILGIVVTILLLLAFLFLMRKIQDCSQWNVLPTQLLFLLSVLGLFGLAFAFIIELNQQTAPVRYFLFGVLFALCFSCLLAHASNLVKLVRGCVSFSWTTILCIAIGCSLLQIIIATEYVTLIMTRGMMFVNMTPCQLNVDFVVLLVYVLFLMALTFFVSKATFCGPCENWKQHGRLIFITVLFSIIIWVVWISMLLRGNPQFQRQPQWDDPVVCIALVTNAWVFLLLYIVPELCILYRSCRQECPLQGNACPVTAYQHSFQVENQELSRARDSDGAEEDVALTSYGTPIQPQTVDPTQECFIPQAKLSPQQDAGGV

Binder | MFI
B1 | 13200 MFI
B2 | 11900 MFI
B3 | 12800 MFI
B4 | 15700 MFI
B5 | 59300 MFI
